doi:10.1101/2024.06.17.599268 (bioRxiv, 2024)

Assays:
Rab8a_(1-176) = target: T1, Rab8a_(1-176) (human, UniProt P61006 1-176); test: ITC
T1 sequence: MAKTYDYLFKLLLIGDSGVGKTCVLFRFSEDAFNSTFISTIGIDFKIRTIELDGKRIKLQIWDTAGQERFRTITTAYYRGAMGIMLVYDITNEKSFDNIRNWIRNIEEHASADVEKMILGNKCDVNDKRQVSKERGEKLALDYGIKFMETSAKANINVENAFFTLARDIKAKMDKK

[1] = target: T2, Mical1 MO-CH-LIM (residues 1-781) (human, UniProt Q8TDZ2 1-781); test: ITC
T2 sequence: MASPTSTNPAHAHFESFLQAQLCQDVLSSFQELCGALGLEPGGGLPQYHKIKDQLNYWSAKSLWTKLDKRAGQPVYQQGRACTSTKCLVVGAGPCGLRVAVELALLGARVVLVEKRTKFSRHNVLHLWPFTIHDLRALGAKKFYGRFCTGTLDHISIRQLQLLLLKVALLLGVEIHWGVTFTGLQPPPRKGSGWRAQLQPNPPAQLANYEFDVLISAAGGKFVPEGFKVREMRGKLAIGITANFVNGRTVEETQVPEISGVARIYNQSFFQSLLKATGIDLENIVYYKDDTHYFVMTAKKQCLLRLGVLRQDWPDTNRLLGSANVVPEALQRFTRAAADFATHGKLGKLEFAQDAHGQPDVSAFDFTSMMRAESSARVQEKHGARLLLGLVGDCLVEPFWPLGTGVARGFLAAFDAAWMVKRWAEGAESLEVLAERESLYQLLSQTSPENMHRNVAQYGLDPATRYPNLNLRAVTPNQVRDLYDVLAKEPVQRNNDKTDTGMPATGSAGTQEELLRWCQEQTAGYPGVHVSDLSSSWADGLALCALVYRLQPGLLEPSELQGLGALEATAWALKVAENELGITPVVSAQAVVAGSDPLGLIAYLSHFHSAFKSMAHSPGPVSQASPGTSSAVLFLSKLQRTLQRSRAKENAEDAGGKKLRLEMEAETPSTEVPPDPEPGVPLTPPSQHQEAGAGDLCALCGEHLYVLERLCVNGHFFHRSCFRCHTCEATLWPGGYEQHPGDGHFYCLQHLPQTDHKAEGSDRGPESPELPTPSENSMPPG

Rab10_(1-175) = target: T3, Rab10_(1-175) (human, UniProt P61026 1-175); test: crystal structure
T3 sequence: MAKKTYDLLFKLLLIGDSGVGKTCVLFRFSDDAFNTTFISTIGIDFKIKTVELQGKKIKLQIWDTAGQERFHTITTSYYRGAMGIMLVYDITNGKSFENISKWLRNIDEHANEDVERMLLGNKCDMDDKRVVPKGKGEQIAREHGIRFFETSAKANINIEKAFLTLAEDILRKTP

B1: bMERB_(V978A) (domain or fragment)
chain: KEEEMKRFCKAQTIQRRLNEIEAALRELEAEGVKLELALRRQSSSPEQQKKLWVGQLLQLADKKNSLVAEEAELMITVQELNLEEKQWQLDQELRGYMNREENLKTAADRQAEDQVLRKLVDLVNQRDALIRFQEERRLSELALGTGAQG
B1 was tested, and the binding result (Rab8a_(1-176)) was “binds”, the “fold reduction in affinity against wild-type bMERB” value [1] was 2 fold and the binding result (Rab10_(1-175)) was “binds”.
